Test results: patent US20080311130A1 (IMMUNE DISEASE INSTITUTE, published 2008)

Target: T1, ICAM-1-Fcγ (ICAM-1 residues of 1-480 fused to the Fc of human IgG, R&D Systems) (human, UniProt P05362 28-480)
T1 construct: range 1-480; Bought (R&D Systems); also called ICAM-1-Fcγ chimera; not shown: Fc of human IgG
Test: flow cytometry on yeast-displayed I domain, ICAM-1-Fcγ 10 µg/ml
Procedure: Cells that were cultured only in SD-CAA or further induced in SG-CAA were harvested, washed with 100 μl of labeling buffer (PBS, 0.5% BSA, 10 mM MgCl₂), and then incubated with ligands at 10 μg/ml in 50 μl of the labeling buffer for 20 min with shaking at 30° C. in a 96-well V-bottom plate. Ligands used in this study were anti-c-myc antibody 9E10 (Santa Cruz Biotechnology, CA) and anti-hemagglutinin antibody 12CA5 (Roche Applied Science), αL I domain-specific antibodies TS1/22 and MEM83³², and ICAM-1-Fcγ (ICAM-1 residues of 1-480 fused to the Fc of human IgG, R&D Systems). After incubation with the primary ligands, cells were washed once in 100 μl of the labeling buffer and incubated with the fluorescence-conjugated secondary antibodies at 5 μg/ml in 50 μl of the labeling buffer for 20 min at 4° C. Finally, cells were washed once in 100 μl and suspended in 100 μl of the labeling buffer for flow cytometry (FACScan, BD Biosciences).
A total of twenty-five yeast colonies were picked from SD-CAA plates from the libraries selected with ICAM-1-Fcγ. These clones were tested for binding of ICAM-1-Fcγ, and sequenced (Table 1). Of these, 15 had unique sequences and were designated as m1 to m15, and all bound ICAM-1 better than wild-type (Table 1). Five clones contained single mutations, and the remainder contained 2-5 mutations each (Table 1). From the clones containing multiple mutations, one to three residues were selected and independently tested as a single substitution (designated with a, b, or c suffix) or independently isolated from the ratchet residue library (see below).

T1 sequence (P05362 28-480 limits assumed, form in doubt): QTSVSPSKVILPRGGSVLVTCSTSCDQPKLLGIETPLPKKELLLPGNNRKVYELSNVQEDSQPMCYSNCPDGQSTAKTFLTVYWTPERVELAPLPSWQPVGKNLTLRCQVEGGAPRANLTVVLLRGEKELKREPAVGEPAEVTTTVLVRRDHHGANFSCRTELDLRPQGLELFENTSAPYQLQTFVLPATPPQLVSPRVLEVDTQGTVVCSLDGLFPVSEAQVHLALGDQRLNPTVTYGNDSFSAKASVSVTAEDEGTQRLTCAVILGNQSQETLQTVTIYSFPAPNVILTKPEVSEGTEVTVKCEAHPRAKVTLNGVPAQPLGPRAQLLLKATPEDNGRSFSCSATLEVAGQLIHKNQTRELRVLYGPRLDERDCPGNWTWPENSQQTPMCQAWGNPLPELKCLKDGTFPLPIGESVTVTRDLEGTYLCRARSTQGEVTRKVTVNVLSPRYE

Binder | ICAM-1 (% ASFI of HA)
αL I domain clone m7 (F292S), yeast-displayed (receptor, yeast surface display; not shown: Aga2, linker and hemagglutinin tag of pCTCON; c-myc tag) NVDLVFLFDGSMSLQPDEFQKILDFMKDVMKKLSNTSYQFAAVQFSTSYKTEFDFSDYVKWKDPDALLKHVKHMLLLTNTFGAINYVATEVFREELGARPDATKVLIIITDGEATDSGNIDAAKDIIRYIIGIGKHFQTKESQETLHKFASKPASEFVKILDTSEKLKDLFTELQKKIYVIEGTSKQDLT | 47 % ASFI of HA
αL I domain clone m4 (F134L, K252E, F265S), yeast-displayed (receptor, yeast surface display; not shown: Aga2, linker and hemagglutinin tag of pCTCON; c-myc tag) NVDLVLLFDGSMSLQPDEFQKILDFMKDVMKKLSNTSYQFAAVQFSTSYKTEFDFSDYVKWKDPDALLKHVKHMLLLTNTFGAINYVATEVFREELGARPDATKVLIIITDGEATDSGNIDAAEDIIRYIIGIGKHSQTKESQETLHKFASKPASEFVKILDTFEKLKDLFTELQKKIYVIEGTSKQDLT | 31 % ASFI of HA
αL I domain clone m8 (F292S, P281E), yeast-displayed (receptor, yeast surface display; not shown: Aga2, linker and hemagglutinin tag of pCTCON; c-myc tag) NVDLVFLFDGSMSLQPDEFQKILDFMKDVMKKLSNTSYQFAAVQFSTSYKTEFDFSDYVKWKDPDALLKHVKHMLLLTNTFGAINYVATEVFREELGARPDATKVLIIITDGEATDSGNIDAAKDIIRYIIGIGKHFQTKESQETLHKFASKEASEFVKILDTSEKLKDLFTELQKKIYVIEGTSKQDLT | 54 % ASFI of HA
αL I domain clone f8 (L295A), yeast-displayed (receptor, yeast surface display; not shown: Aga2, linker and hemagglutinin tag of pCTCON; c-myc tag) NVDLVFLFDGSMSLQPDEFQKILDFMKDVMKKLSNTSYQFAAVQFSTSYKTEFDFSDYVKWKDPDALLKHVKHMLLLTNTFGAINYVATEVFREELGARPDATKVLIIITDGEATDSGNIDAAKDIIRYIIGIGKHFQTKESQETLHKFASKPASEFVKILDTFEKAKDLFTELQKKIYVIEGTSKQDLT | 25 % ASFI of HA
αL I domain clone f2 (L289G), yeast-displayed (receptor, yeast surface display; not shown: Aga2, linker and hemagglutinin tag of pCTCON; c-myc tag) NVDLVFLFDGSMSLQPDEFQKILDFMKDVMKKLSNTSYQFAAVQFSTSYKTEFDFSDYVKWKDPDALLKHVKHMLLLTNTFGAINYVATEVFREELGARPDATKVLIIITDGEATDSGNIDAAKDIIRYIIGIGKHFQTKESQETLHKFASKPASEFVKIGDTFEKLKDLFTELQKKIYVIEGTSKQDLT | 74 % ASFI of HA
αL I domain clone m2 (I258T, T267A, F277A), yeast-displayed (receptor, yeast surface display; not shown: Aga2, linker and hemagglutinin tag of pCTCON; c-myc tag) NVDLVFLFDGSMSLQPDEFQKILDFMKDVMKKLSNTSYQFAAVQFSTSYKTEFDFSDYVKWKDPDALLKHVKHMLLLTNTFGAINYVATEVFREELGARPDATKVLIIITDGEATDSGNIDAAKDIIRYTIGIGKHFQAKESQETLHKAASKPASEFVKILDTFEKLKDLFTELQKKIYVIEGTSKQDLT | 10 % ASFI of HA
αL I domain clone m3 (G262E), yeast-displayed (receptor, yeast surface display; not shown: Aga2, linker and hemagglutinin tag of pCTCON; c-myc tag) NVDLVFLFDGSMSLQPDEFQKILDFMKDVMKKLSNTSYQFAAVQFSTSYKTEFDFSDYVKWKDPDALLKHVKHMLLLTNTFGAINYVATEVFREELGARPDATKVLIIITDGEATDSGNIDAAKDIIRYIIGIEKHFQTKESQETLHKFASKPASEFVKILDTFEKLKDLFTELQKKIYVIEGTSKQDLT | 4 % ASFI of HA
αL I domain clone m11 (L295P, Q303R), yeast-displayed (receptor, yeast surface display; not shown: Aga2, linker and hemagglutinin tag of pCTCON; c-myc tag) NVDLVFLFDGSMSLQPDEFQKILDFMKDVMKKLSNTSYQFAAVQFSTSYKTEFDFSDYVKWKDPDALLKHVKHMLLLTNTFGAINYVATEVFREELGARPDATKVLIIITDGEATDSGNIDAAKDIIRYIIGIGKHFQTKESQETLHKFASKPASEFVKILDTFEKPKDLFTELRKKIYVIEGTSKQDLT | 107 % ASFI of HA
αL I domain clone m10 (F265L, E293G, K294E, K296E, V308I), yeast-displayed (receptor, yeast surface display; not shown: Aga2, linker and hemagglutinin tag of pCTCON; c-myc tag) NVDLVFLFDGSMSLQPDEFQKILDFMKDVMKKLSNTSYQFAAVQFSTSYKTEFDFSDYVKWKDPDALLKHVKHMLLLTNTFGAINYVATEVFREELGARPDATKVLIIITDGEATDSGNIDAAKDIIRYIIGIGKHLQTKESQETLHKFASKPASEFVKILDTFGELEDLFTELQKKIYIIEGTSKQDLT | 16 % ASFI of HA
αL I domain clone m5a (L274I), yeast-displayed (receptor, yeast surface display; not shown: Aga2, linker and hemagglutinin tag of pCTCON; c-myc tag) NVDLVFLFDGSMSLQPDEFQKILDFMKDVMKKLSNTSYQFAAVQFSTSYKTEFDFSDYVKWKDPDALLKHVKHMLLLTNTFGAINYVATEVFREELGARPDATKVLIIITDGEATDSGNIDAAKDIIRYIIGIGKHFQTKESQETIHKFASKPASEFVKILDTFEKLKDLFTELQKKIYVIEGTSKQDLT | 91 % ASFI of HA
αL I domain clone f7 (F292P), yeast-displayed (receptor, yeast surface display; not shown: Aga2, linker and hemagglutinin tag of pCTCON; c-myc tag) NVDLVFLFDGSMSLQPDEFQKILDFMKDVMKKLSNTSYQFAAVQFSTSYKTEFDFSDYVKWKDPDALLKHVKHMLLLTNTFGAINYVATEVFREELGARPDATKVLIIITDGEATDSGNIDAAKDIIRYIIGIGKHFQTKESQETLHKFASKPASEFVKILDTPEKLKDLFTELQKKIYVIEGTSKQDLT | 5 % ASFI of HA
αL I domain clone f5 (F292A), yeast-displayed (receptor, yeast surface display; not shown: Aga2, linker and hemagglutinin tag of pCTCON; c-myc tag) NVDLVFLFDGSMSLQPDEFQKILDFMKDVMKKLSNTSYQFAAVQFSTSYKTEFDFSDYVKWKDPDALLKHVKHMLLLTNTFGAINYVATEVFREELGARPDATKVLIIITDGEATDSGNIDAAKDIIRYIIGIGKHFQTKESQETLHKFASKPASEFVKILDTAEKLKDLFTELQKKIYVIEGTSKQDLT | 29 % ASFI of HA
αL I domain clone f10 (L295Q), yeast-displayed (receptor, yeast surface display; not shown: Aga2, linker and hemagglutinin tag of pCTCON; c-myc tag) NVDLVFLFDGSMSLQPDEFQKILDFMKDVMKKLSNTSYQFAAVQFSTSYKTEFDFSDYVKWKDPDALLKHVKHMLLLTNTFGAINYVATEVFREELGARPDATKVLIIITDGEATDSGNIDAAKDIIRYIIGIGKHFQTKESQETLHKFASKPASEFVKILDTFEKQKDLFTELQKKIYVIEGTSKQDLT | 4 % ASFI of HA
αL I domain clone m9 (F292S, Y177R, L204Q), yeast-displayed (receptor, yeast surface display; not shown: Aga2, linker and hemagglutinin tag of pCTCON; c-myc tag) NVDLVFLFDGSMSLQPDEFQKILDFMKDVMKKLSNTSYQFAAVQFSTSRKTEFDFSDYVKWKDPDALLKHVKHMLQLTNTFGAINYVATEVFREELGARPDATKVLIIITDGEATDSGNIDAAKDIIRYIIGIGKHFQTKESQETLHKFASKPASEFVKILDTSEKLKDLFTELQKKIYVIEGTSKQDLT | 28 % ASFI of HA
αL I domain clone f11 (L295W), yeast-displayed (receptor, yeast surface display; not shown: Aga2, linker and hemagglutinin tag of pCTCON; c-myc tag) NVDLVFLFDGSMSLQPDEFQKILDFMKDVMKKLSNTSYQFAAVQFSTSYKTEFDFSDYVKWKDPDALLKHVKHMLLLTNTFGAINYVATEVFREELGARPDATKVLIIITDGEATDSGNIDAAKDIIRYIIGIGKHFQTKESQETLHKFASKPASEFVKILDTFEKWKDLFTELQKKIYVIEGTSKQDLT | 81 % ASFI of HA
αL I domain clone m1 (I258T), yeast-displayed (receptor, yeast surface display; not shown: Aga2, linker and hemagglutinin tag of pCTCON; c-myc tag) NVDLVFLFDGSMSLQPDEFQKILDFMKDVMKKLSNTSYQFAAVQFSTSYKTEFDFSDYVKWKDPDALLKHVKHMLLLTNTFGAINYVATEVFREELGARPDATKVLIIITDGEATDSGNIDAAKDIIRYTIGIGKHFQTKESQETLHKFASKPASEFVKILDTFEKLKDLFTELQKKIYVIEGTSKQDLT | 10 % ASFI of HA
αL I domain clone f4 (L289W), yeast-displayed (receptor, yeast surface display; not shown: Aga2, linker and hemagglutinin tag of pCTCON; c-myc tag) NVDLVFLFDGSMSLQPDEFQKILDFMKDVMKKLSNTSYQFAAVQFSTSYKTEFDFSDYVKWKDPDALLKHVKHMLLLTNTFGAINYVATEVFREELGARPDATKVLIIITDGEATDSGNIDAAKDIIRYIIGIGKHFQTKESQETLHKFASKPASEFVKIWDTFEKLKDLFTELQKKIYVIEGTSKQDLT | 51 % ASFI of HA
αL I domain clone f6 (F292G), yeast-displayed (receptor, yeast surface display; not shown: Aga2, linker and hemagglutinin tag of pCTCON; c-myc tag) NVDLVFLFDGSMSLQPDEFQKILDFMKDVMKKLSNTSYQFAAVQFSTSYKTEFDFSDYVKWKDPDALLKHVKHMLLLTNTFGAINYVATEVFREELGARPDATKVLIIITDGEATDSGNIDAAKDIIRYIIGIGKHFQTKESQETLHKFASKPASEFVKILDTGEKLKDLFTELQKKIYVIEGTSKQDLT | 91 % ASFI of HA
αL I domain clone f9 (L295P), yeast-displayed (receptor, yeast surface display; not shown: Aga2, linker and hemagglutinin tag of pCTCON; c-myc tag) NVDLVFLFDGSMSLQPDEFQKILDFMKDVMKKLSNTSYQFAAVQFSTSYKTEFDFSDYVKWKDPDALLKHVKHMLLLTNTFGAINYVATEVFREELGARPDATKVLIIITDGEATDSGNIDAAKDIIRYIIGIGKHFQTKESQETLHKFASKPASEFVKILDTFEKPKDLFTELQKKIYVIEGTSKQDLT | 5 % ASFI of HA
αL I domain clone m5 (L274I, S279T), yeast-displayed (receptor, yeast surface display; not shown: Aga2, linker and hemagglutinin tag of pCTCON; c-myc tag) NVDLVFLFDGSMSLQPDEFQKILDFMKDVMKKLSNTSYQFAAVQFSTSYKTEFDFSDYVKWKDPDALLKHVKHMLLLTNTFGAINYVATEVFREELGARPDATKVLIIITDGEATDSGNIDAAKDIIRYIIGIGKHFQTKESQETIHKFATKPASEFVKILDTFEKLKDLFTELQKKIYVIEGTSKQDLT | 51 % ASFI of HA
αL I domain clone m6 (F209Y, L289P), yeast-displayed (receptor, yeast surface display; not shown: Aga2, linker and hemagglutinin tag of pCTCON; c-myc tag) NVDLVFLFDGSMSLQPDEFQKILDFMKDVMKKLSNTSYQFAAVQFSTSYKTEFDFSDYVKWKDPDALLKHVKHMLLLTNTYGAINYVATEVFREELGARPDATKVLIIITDGEATDSGNIDAAKDIIRYIIGIGKHFQTKESQETLHKFASKPASEFVKIPDTFEKLKDLFTELQKKIYVIEGTSKQDLT | 33 % ASFI of HA
αL I domain clone f3 (L289P), yeast-displayed (receptor, yeast surface display; not shown: Aga2, linker and hemagglutinin tag of pCTCON; c-myc tag) NVDLVFLFDGSMSLQPDEFQKILDFMKDVMKKLSNTSYQFAAVQFSTSYKTEFDFSDYVKWKDPDALLKHVKHMLLLTNTFGAINYVATEVFREELGARPDATKVLIIITDGEATDSGNIDAAKDIIRYIIGIGKHFQTKESQETLHKFASKPASEFVKIPDTFEKLKDLFTELQKKIYVIEGTSKQDLT | 24 % ASFI of HA
